From the RNAGym collection of RNA variant scans (doi:10.1073/pnas.2313332121)

B1: TPR t1 (parent)
chain: GACCAAUCUGCCCUCAGAGCUCGAGAACAUCUUCGGAUGCAGAGGAGGCAGGCUUCGGUGGCGCGAUAGCGCCAACGUCCUCAACCUCCAAUGCAUCCCACCACAUGAUGAUGCCUGAAGAGCCUUGGUUUUUUG

Variants of: B1
Experiment: polymerase ribozyme fitness, log enrichment relative to wild type (log ratio); higher = more active; in vitro selection for triplet polymerase activity
In short: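 One round of in vitro selection, in triplicate, was applied to PCR-built, transcribed mutant libraries of each subunit of a heterodimeric triplet polymerase ribozyme. The steps were annealing with a biotinylated primer, partner subunit and triplets, incubation frozen at −7 °C, gel excision of extended constructs, streptavidin-bead capture and RT-PCR. Fitness is the logarithm, base 2, of genotype enrichment over wild-type enrichment from inverse-variance-weighted replicate averages of Illumina-sequenced inputs and outputs, keeping genotypes with ≥10 input reads and ≥1 read per output.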

Row | Variant | polymerase ribozyme fitness (log ratio)
1 | U7A G17U | -1.25
2 | C88U A91U C115G | -3.9
3 | C15U C124A | 0.552
4 | A27U G52A C73A A91C U112A | -4.52
5 | C3U A27U G61A | -3.78
6 | C13U C89G A90G G110C | -6.32
7 | A29U C34U G47U C53U | -6.51
8 | C62A C124U | 1.51
9 | G45A G48U U112G | -2.7
10 | U9A G17U C62A C88U A91G U132A | -4.47
11 | C11U U87G C102U | -1.67
12 | C4U C53U G69A U78A C86U | -3.99
13 | C53G G61C C82U G120A | 0.391
14 | C80U C89G | -1.42
15 | G17A G44U C49U U55G | -4.05
16 | C49A A68U G69C U112C U130A | -4.19
17 | C3U C40G G47A C62U A84G | -3.81
18 | U9G U21C C70U | -1.31
19 | C34U U96C | -5.22
20 | C53G G61U C70U | -0.621
21 | A5U A6C C8G G47A G113C | -2.19
22 | U14C G93U U112A | -2.43
23 | A5U C28U G69A C124U U133G | -4.96
24 | C12G G44U G47C G58C U116A | -5.59

Row | Variant | polymerase ribozyme fitness (log ratio)
25 | A5G A84U U112G | -0.141
26 | A90C U109A A118U | -5.95
27 | G71C U87A | -2.35
28 | C12U G61C A119U | -1.74
29 | C15U C123G | 0.228
30 | U21A C28U A37G G61U | -4.5
31 | A16G C49G G51U C86A U126C | -4.58
32 | C4A C49G A83G C88A C102U G120C | -5.38
33 | U9G G17A A18U A46U C73A A84G U87A U112C G127C U134A | -3.68
34 | U9A C34G C76G C85G | -6.38
35 | G39C G69A U112A | -3.52
36 | C73U U92G | -2.88
37 | U106A C115G | -3.75
38 | C85A C88U | -2.64
39 | U30A A118U | -5.54
40 | G77U U78A A118U | -3.74
41 | G48C G77A | -1.21
42 | U112A C115G | -0.927
43 | C11A C49A U59A A68G A91G | -6.83
44 | A5G U38G G39C | -3.2
45 | C8U C70G A111U | -6.19
46 | C12U G61A | 0.126
47 | C40A G61U G93C C94G C124U | -1.28
48 | G42U G44U C53U G69U C79A G127U | -3.88

Row | Variant | polymerase ribozyme fitness (log ratio)
49 | A27C G47U U106A C124A U130A U133A | -3.86
50 | C3U C12A G69U G117A | -2.56
51 | C53U C73U A90G | 0.151
52 | G51A G69C U112A | -5.2
53 | C11U C62A | -1.39
54 | G52U G110A | -1.73
55 | C8A G58A G60A | -0.486
56 | G51A U78C | -2.47
57 | A103C | -5.01
58 | A43U A111C | -1.94
59 | C62U C76U G127A | -2.58
60 | C3U C53U G117U A118G | -0.935
61 | A91C U112A | -0.47
62 | C8G G65U | -5.38
63 | U7G A50U G117C | -3.6
64 | U9G A37U A100C | -0.694
65 | G47A C88U C102U | -3.29
66 | G44A C73G C85A U130A | -3.2
67 | A46G C70U | -0.0806
68 | C80U C94G | -1.73
69 | U9C A27G G45A G57U C115G | -3.94
70 | G42A A46G G120U | -2.64
71 | G35A U78A | -4.53
72 | G61U U106G A108U | -4.45

Row | Variant | polymerase ribozyme fitness (log ratio)
73 | C11A C56A C89U | -1.96
74 | G47U U78C A111U | -4.07
75 | A46U C79U | -2.22
76 | C22U G71A | -3.86
77 | A50U C64A A100C A111G | -6.26
78 | C31G C53G A90U G113A | -6.88
79 | A95G A119G | 1.26
80 | C56A C79G | -0.642
81 | A6U G48U C53A C88G C102A | -3.09
82 | C49G G61A A95C | -1.32
83 | G61C C79G U92A G117U | -6.69
84 | G48A U130A | -1.78
85 | C28U C73G | -2.44
86 | G63A C72U C101U | -1.24
87 | C8U G45C G71A C85A | -3.29
88 | A29U C89U | -2.05
89 | C15A G135U | -2.9
90 | C11U G39C U59C U81A A84G | -3.33
91 | G25C G69U G110C | -7.38
92 | G63U C89G | -1.88
93 | C3U C13U A37C C70A | -1.1
94 | G36U U125A | -1.4
95 | G47A G60C G71U A119U | -6.29
96 | A18C C20A U54A G63C U96A | -4.09

Row | Variant | polymerase ribozyme fitness (log ratio)
97 | A41C A46U C70U | -3.44
98 | G57A G71U | -0.925
99 | C11U U112G | -0.177
100 | G63U C70U U129A | -1.48
101 | G47C C73U | -1.61
102 | A16U C70G C79U C94U | -2.44
103 | G44A U129A | -1.83
104 | G47U C53G U96G C104U A118G C124U | -1.59
105 | G48C G52C | -2.25
106 | G10A G61U C86U U92C G93A | -2.24
107 | A41C C98U G117A | -5.3
108 | C70G G93U | -3.28
109 | C64U C79U U106A U109A | -5.15
110 | G52A G58U C73G | -0.432
111 | A37C G63U | -1.28
112 | G61C U112C | 0.0988
113 | G48U A83G C97U C104A G120A | -3.43
114 | C56U C88A | -0.497
115 | G42U C73A C114G | -1.95
116 | G45A G48C C53U C62U C102U C124G U131C | -1.71
117 | G19A G48U C49U G69U U78C G93U | -3.08
118 | A41U A74U | -1.31
119 | A6U C12U G23C G63U G120U | -7.69
120 | C4U U87C | -0.694

Row | Variant | polymerase ribozyme fitness (log ratio)
121 | C20A C79U | -2.47
122 | C13A A16U C72U G93A | -3.35
123 | C13A U38A A46U C70G A121U | -5.9
124 | C11U A24U C28G C62G A83G G113U U133C | -6.38
125 | A5C A50C A74U U96G | -3.17
126 | G45U A46C U54C U78C | -2
127 | C104A G127A | -3.1
128 | G77A C114G U130C | -2.63
129 | C8U G45A C72G | -0.658
130 | G44C C85U G117A C124A U125C | -1.55
131 | C80U A118C | -3.16
132 | G47A G71A | -2.02
133 | U30C C115A | -2.84
134 | G93U A111G G122A | -1.2
135 | C40U C88A C101A A121U | -0.199
136 | C20U U33G C123U | -6.12
137 | C11G U21A | -0.298
138 | G47A G69C C73U U106A | -2.08
139 | A90C U125A | -1.2
140 | G61C A119G | -0.986
141 | G35U G113C | -7.04
142 | A27C G45C | -4.29
143 | A37U C56A | -1.32
144 | C70G C104G G110A | -6.86

Row | Variant | polymerase ribozyme fitness (log ratio)
145 | C12A A43C G61U | -0.92
146 | C3G C8G G117A G120A G135U | -1.6
147 | A43U C49G U54A | -2.2
148 | G48U U131C | -0.204
149 | A2G G17A | -2.9
150 | C3G C40G A121G U130G | 0.237
151 | C11A C80G C88U | -6.42
152 | G17A C115U U116C | -6.73
153 | G69U G113C | -0.897
154 | A2U C40U C115A A121U | 0.0194
155 | G35C C76G | -4.89
156 | A27U U112C | -1.46
157 | A37C G52A A83C U116C | -2.17
158 | C11G C15A G61A U125G | -0.186
159 | A6C C70G C82A | -2.15
160 | C8A G19C C82A | -1.97
161 | G10C A26G C62G | -4.17
162 | A43G A118G | -1.54
163 | U38G G42U G120C U126G G128U | -3.39
164 | A2C C11U C114G | -4.14
165 | A16G A91U G113U | -2.28
166 | U78C A121C | 1.83
167 | G23C C28U C102G U112A C115A G120A | -8.12
